Laboratory results as given in PMC11797554, “Chemical genetics reveals cross-regulation of plant developmental signaling by the immune peptide-receptor pathway” (Science Advances, 2024).

Legend:
[1] = target: MPK6ΔNt (29 to 305) (Arabidopsis) (UniProt Q39026); test: ITC; SCRM KiDoK peptide to MPK6ΔNt (29 to 305), without kC9; 25°C, Malvern PEAQ-ITC; PBS pH 7.4 with 2% DMSO
[2] = target: MPK6ΔNt (29 to 305) (Arabidopsis) (UniProt Q39026); test: ITC; SCRM KiDoK peptide to MPK6ΔNt (29 to 305) preincubated with the small molecule kC9; 25°C, Malvern PEAQ-ITC; PBS pH 7.4 with 2% DMSO
[3] = target: SCRM KiDoK peptide (Arabidopsis); test: BLI; biotinylated SCRM KiDoK peptide (500 nM) loaded on streptavidin probes; MPK6 as analyte at 150-4.68 nM; without kC9; Octet Red96, 25°C; 1x PBS, 2% DMSO, 0.02 Tween 20, 0.1% BSA; 1:1 model, Kd from kobs with steady-state analysis
[4] = target: SCRM KiDoK peptide (Arabidopsis); test: BLI; as a1 but analyte MPK6 preincubated with the small molecule kC9 (MPK6:kC9 1:1.5), 150-4.68 nM; biotinylated SCRM KiDoK peptide on streptavidin probes; 25°C; 1x PBS, 2% DMSO, 0.02 Tween 20, 0.1% BSA

Substance: SCRM KiDoK peptide
- Kd [1]: 0.0434 µM
- Kd [2]: 1.4 µM

Substance: MPK6ΔNt (29 to 305) (from UniProt Q39026 29-305) (domain or fragment)
- Kd [3]: 0.0401 µM
- Kd [4]: 0.857 µM
